Test results: PMC8313361

Molecular target: Recombinant rat SNX27 PDZ domain (residues 38-135) (rat) (UniProt Q8K4V4)
Assay: ITC

Phosphorylated GluN2A C-terminal peptide (phospho-Ser-1459)
Kd: 14 µM

GluN2A C-terminal peptide, wild type
Kd: 46 µM

GluN2A C-terminal peptide, S1459E phospho-mimetic mutant
Kd: 25 µM

GluN2A C-terminal peptide, S1459A phospho-deficient mutant
Kd: 49 µM
